B1: FBXO3 (parent)
chain: HDPLWRRHCKKYWLISEEEKTQKN

Variants of: B1
Test: protein stability index of a GFP-peptide fusion (GPS, HEK-293T) (PSI 1-6); higher = more stable
Details: c terminus: a fixed tail appended
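Note: lentivirally expressed fusions sorted by FACS into six bins by GFP to DsRed ratio, PSI derived from sequencing read proportions per bin multiplied by bin number.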

Protein stability index, by site and new letter:
L14: E 3.77; R 3.3; A 3.57; T 3.65; N 4.4; I 2.99; S 3.88; W 3.31; P 4.11; C 3.3; K 3.53
C9: Y 3.31; L 2.93; D 4.83; E 4.37; R 3.68; N 4.14; A 3.57; S 3.27; T 3.7; M 2.55; P 4.15; Q 3.9; I 3.58; F 2.65; W 3.16
Q22: D 3.35; H 2.99; V 3.44; T 3.42; M 3.01; L 2.57; R 2.95; F 2.56; A 3.29; G 3.18; C 2.79; E 3.42; K 2.89
I15: E 3.88; Q 3.68; F 3.38; G 3.69; V 3.85; T 3.61; P 3.68; A 3.38; L 3.44; R 4.68; D 3.69; W 3.19; K 3.47; N 3.67
S16: E 3.8; D 3.84; K 3.21; A 3.21; F 2.46; L 2.72; G 2.95; Q 2.99; H 3.09; M 2.99; Y 2.72; I 2.4; W 2.52; P 3.77
D2: K 2.58; F 2.33; H 2.18; M 2.63; Y 2.56; V 1.97; C 2.26; L 2.24; A 2.58; P 3.13; I 2.25; T 1.87; S 1.81; G 1.62; E 2.62
L4: E 2.9; T 4.35; I 2.93; C 3.51; N 3.52; W 3.63; S 3.87; Q 3.88; Y 3.45; F 3.52; K 2.95; P 3.73; M 3.26; V 3.32
T21: D 3.25; F 2.64; R 2.83; H 2.86; L 2.76; C 3.39; G 2.91; I 3.29; V 2.99; P 3.32; M 2.63; W 2.44
H1: F 2.34; R 2.8; K 3.21; P 3.74; Y 2.12; M 3.32; D 4.12; V 3.38; T 3.66; C 3.53; E 3.84; S 3.62; I 2.06; W 2.15; L 3.85
E19: N 2.88; D 3.17; P 2.98; T 2.71; R 2.94; G 3.05; Q 3.26; A 2.83; M 2.66; W 1.9; K 2.92; Y 2.54; F 2.04; V 2.67; S 3.05
E18: F 2.55; K 3.04; T 2.89; Q 2.94; W 2.38; I 2.46; A 2.55; M 2.28; P 2.91; C 2.95; V 2.5; N 3.15; H 3.3; G 2.75
R6: A 2.99; W 2.46; N 3.85; Q 3.54; S 3.69; H 3.51; V 2.98; I 2.58; M 3.58; L 2.89; G 3.6; Y 2.7; C 3.35; T 3.43; E 4.24; F 2.84; D 4.04
P3: N 3.49; D 3.33; E 3.45; V 3.84; L 3.12; Q 3.5; K 3.03; W 2.44; Y 2.75; I 3.08; H 2.97; M 3.33; G 3.1
K23: W 2.7; R 3.16; I 2.93; S 3.38; V 3.6; A 3.34; P 3.11; C 3.09; D 3.95; H 3.24; Q 3.27; E 3.8; Y 2.91
W13: T 4.22; L 3.84; A 4.04; E 4.52; I 3.91; H 4.21; P 4.21; F 3.85; R 3.46; Q 4.28; G 4.26; V 3.85; N 4.37; M 3.76; Y 3.19; S 3.97; K 4.65
N24: A 2.9; E 3.12; I 2.48; C 2.73; Q 3.43; M 3.4; D 3.68; G 2.61; H 2.99; V 3.02; S 2.91; T 3.47; P 3.87
Y12: H 3.72; I 3.48; A 3.44; E 4.48; P 3.78; W 3.12; Q 3.61; F 3.22; K 3.89
K20: N 3.24; Y 2.71; D 3.35; R 3.38; P 2.91; I 2.58; W 2.33; S 3.2; M 3.03; V 3.29; L 2.88; Q 3.66; C 2.9; T 2.89; F 2.6; E 3.64
K10: V 2.57; W 2.95; P 4.06; C 2.27; L 2.34; D 4.05; T 2.71; I 2.02; F 2.77; R 3.06; M 2.28
E17: D 3.48; C 2.64; M 2.22; N 2.98; Y 2.62; P 3.52; A 3.41; L 2.47; W 2.37; R 3; I 2.31; V 2.23; T 3.1; S 3.26
K11: C 2.63; Y 2.31; L 1.93; D 3.12; T 2.71; N 2.65; Q 3.45; W 2.41; V 2.28; F 2.4; I 2.27
R7: W 2.68; N 3.46; L 3.14; Y 2; V 2.71; P 4.42; M 2.86; T 3.53; C 2.95; H 3.02; E 3.31; I 3.14; K 3.22; D 3.8
H8: F 1.73; S 2.73; N 3.15; V 2.56; W 1.88; M 2.23; I 1.63; C 2.03; R 3; D 4.29; L 1.88; Q 3.72; G 3.31; T 2.79; P 3.4; A 2.63
W5: M 4.39; D 4.18; E 4.07; R 3.42; F 4.56; V 3.81; A 4.33; K 3.62; Y 4.71; T 4.76; P 3.78; S 4.08; L 4.35; C 3.77; N 3.89; G 3.96; H 3.94; I 3.99
